In publication PMC5785340, “MaRAP2‐4, a waterlogging‐responsive ERF from Mentha, regulates bidirectional sugar transporter AtSWEET10 to modulate stress response in Arabidopsis”:

B1: AtSWEET10 promoter probe with DRE only (dsDNA)
DNA 1: AATTTCGCATGCCGACATCAATGTGCGCACAACA
DNA 2: TGTTGTGCGCACATTGATGTCGGCATGCGAAATT
B2: AtSWEET10 promoter probe with overlapping DRE and GCC (dsDNA)
DNA 1: ATGATTCACGGCCGCCGACGCCGTTCGTTACCA
DNA 2: TGGTAACGAACGGCGTCGGCGGCCGTGAATCAT

Molecular target: MaRAP2-4 (Mentha arvensis, UniProt A0A1Z2X6Y3 1-315)
Sequence (A0A1Z2X6Y3 entry or part of it): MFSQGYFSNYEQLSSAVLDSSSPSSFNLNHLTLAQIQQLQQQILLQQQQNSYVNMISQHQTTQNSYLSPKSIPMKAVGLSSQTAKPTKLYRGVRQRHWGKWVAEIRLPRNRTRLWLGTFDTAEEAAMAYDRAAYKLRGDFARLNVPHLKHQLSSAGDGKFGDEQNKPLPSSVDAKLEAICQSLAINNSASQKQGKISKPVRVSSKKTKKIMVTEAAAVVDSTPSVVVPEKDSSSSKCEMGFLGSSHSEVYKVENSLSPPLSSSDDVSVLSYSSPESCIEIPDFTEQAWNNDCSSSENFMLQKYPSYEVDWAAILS
Assay: EMSA; DIG Gel Shift Kit 2nd Generation (Roche), manufacturer's protocol; buffer, pH and temperature not stated
Conditions: protein: recombinant; tags: GST (pGEX-4T2); label: DIG

Binder	binding result
B1	binds
B2	binds
